The target in assay [1] is T1, HER2 on the surface of N87 cells (human, UniProt P04626).
T1 construct: full-length receptor on the cell surface
The assay can be described thus: flow cytometry on N87 cells; scFv detected with AL2-RFP (1:1 scFv:AL fragment); MFI adjusted over cells with AL2-RFP without scFv.
Procedure: (§1) Mean fluorescence intensities (MFIs) for the same set of scFvs complexed with AL2-RFP in 1:1 ratio of the scFv:AL fragment were measured with N87 (FIG. 10B), SKBR3 (FIG. 10D), BT474 (FIG. 10F), and MCF7 (FIG. 10H) cells by flow cytometry, where the MFIs shown in the y-axis were adjusted over the background value by the cells treated with AL2-RFP without scFv.
(§2) Cells were suspended by trypsin treatment and went through mesh 40-micron pore. About 2×10⁵ cells were incubated with 100 μL scFv at 4° C. for 30 minutes, then washed once with 0.5% FBS 1×PBS (wash buffer), mixed with 1.2 μg AL2-RFP in 50 μL wash buffer at 4° C. for 20 minutes, and then wash twice with washer buffer. After centrifugation and resuspension, cells were analyzed for RFP signal by FACS (BD FACS Canto II).

Assay [2] has as its target T2, HER2 on the surface of BT474 cells (human, UniProt P04626).
T2 construct: full-length receptor on the cell surface
Put plainly: flow cytometry on BT474 cells; scFv detected with AL2-RFP (1:1 scFv:AL fragment); MFI adjusted over cells with AL2-RFP without scFv. On the technique in general: Flow cytometry measures light scatter and fluorescence of single cells or particles in a stream.
Procedure: as §1, §2

B1: GH2-20 scFv (scFv)
scFv: DIQMTQSPSSLSASVGDRVTITCRASQDVNNNVAWYQQKPGKAPKLLIYWTTYLYSGVPSRFSGSGSGTDFTLTISSLQPEDFATYYCQQGSNWPITFGQGTKVEIKRGGSSRSSSSGGGGSGGGGEVQLVESGGGLVQPGGSLRLSCAASGLTINDYGIHWVRQAPGKGLEWVASIGPSGGFTSYADSVKGRFTISADTSKNTAYLQMNSLRAEDTAVYYCARFVIYWGFFMDYWGQGTLVTVSSASAAA
Regarding B1, the binding result in assay [1] and in assay [2] was “binds” each time.

B2: GH2-50 scFv (scFv)
scFv: DIQMTQSPSSLSASVGDRVTITCRASQDVFYGVAWYQQKPGKAPKLLIFWTTYLYSGVPSRFSGSGSGTDFTLTISSLQPEDFATYYCQQYFNWPLTFGQGTKVEIKRGGSSRSSSSGGGGSGGGGEVQLVESGGGLVQPGGSLRLSCAASGFTINNDGIHWVRQAPGKGLEWVAAIGPFWGSTDYADSVKGRFTISADTSTNTAYLHMNSLRAEDTALYYCARFGNYYDGVMDYWGQGTLVTVSSASAAA
As to B2, the binding result in assay [1] and in assay [2] was “binds” throughout.

B3: GH2-61 scFv (scFv)
scFv: DIQMTQSPSSLSASVGDRVTITCRASQDVGSNVAWYQQKPGKAPKLLISWSTSLYSGVPSRFSGSGSGTDFTLTISSLQPEDFATYYCQQYGGWPITFGQGTKVEIKRGGGGSIEGRSGGGGSEVQLVESGGGLVQPGGSLRLSCAASGFTINNWGIHWVRQAPGKGLEWVAGIWPYGGYTYYADSVKGRFTISADTSKNTAYLQMNSLRAEDTAVYYCARFYNHHGGVMDYWGQGTLVTVSSASAAA
Consider B3, for which the binding result in assay [1] and in assay [2] was “binds” throughout.

B4: H32 scFv (scFv)
scFv: DIQMTQSPSSLSASVGDRVTITCKASQNVGTAVAWYQQKPGKAPKLLIYSASNRYTGVPSRFSGSGSGTDFTLTISSLQPEDFATYYCQQYSSYPLAFGQGTKVEIKRGGGGSIEGRSGGGGSEVQLVESGGGLVQPGGSLRLSCKASGFNIKDYFMYWVRQAPGKGLEWVGWIDPENGNTIYDPKFQGRFTISADTSKNTAYLQMNSLRAEDTAVYYCTRGYYGSRVLAMDYWGQGTLVTVSSASAAA
notes: also called scFv(H32)
Take B4: the binding result in assay [1] and in assay [2] was “binds” each time.

B5: GH2-41 scFv (scFv)
scFv: DIQMTQSPSSLSASVGDRVTITCRASQDVSNSVAWYQQKPGKAPKLLISGAAWLYSGVPSRFSGSGSGTDFTLTISSLQPEDFATYYCQQSGNFPLTFGQGTKVEIKRGGSSRSSSSGGGGSGGGGEVQLVESGGGLVQPGGSLRLSCAASGFTISNWGIHWVRQAPGKGLEWVASIGPSGGFTSYADSVKGRFTISADTSKNTAYLQMNSLRAEDTAVYYCARFYIYGGVIMDYWGQGTLVTVSSASAAA
Consider B5, for which the binding result in assay [1] and in assay [2] was “binds” each time.

The values above are taken from patent US20170355750A1 (ACADEMIA SINICA, published 2017).
